This note sets out measurements from US20240252614A1 (Pfizer, published 2024).

What all share (assay): BLI, no stress
For experiment [1], the target named is T1, hMPV048 (hMPV A, UniProt Q6WB98 19-102).
T1 construct: L141C-A161C
Procedure: (§1) The OCTET HTX (Sartorius, Gottingen, Germany) instrument was used to evaluate the expression and conformational integrity for each mutant. All measurements were conducted at 30° C. temperature in 96-well black plates (Corning, Corning, NY) with a final volume of 240 μL per well at a constant agitation rate of 1000 RPM.
(§2) Conformation integrity of hMPV A F protein mutants were evaluated by thermal stress experiments. Crude cell culture supernatants were normalized based on the results of the titer quantitation and then incubated for 1 hour at room temperature and two higher temperatures. […] Anti-Human IgG Fc Capture (AHC) biosensors were first equilibrated in PB before being dipped into more PB to establish the initial baseline. […] The mAb-bound biosensors were then dipped into the thermal stressed cell culture supernatants for 5 minutes. The kinetics analysis was done by OCTET data analysis software (version 12.0, Sartorius) based on curve fitting of the entire associate step.

Experiment [2] has as its target T2, hMPV058 (hMPV A, UniProt Q6WB98 19-102).
T2 construct: L187P
Procedure: as §1, §2

Experiment [3] addresses T3, hMPV060 (hMPV A, UniProt Q6WB98 19-102).
T3 construct: A459P
Procedure: as §1, §2

Experiment [4] deals with T4, hMPV061 (hMPV A, UniProt Q6WB98 19-102).
T4 construct: G106A
Procedure: as §1, §2

The target of experiment [5] is T5, hMPV067 (hMPV A, UniProt Q6WB98 19-102).
T5 construct: S149T
Procedure: as §1, §2

Experiment [6] has as its target T6, hMPV071 (hMPV A, UniProt Q6WB98 19-102).
T6 construct: T365I
Procedure: as §1, §2

In experiment [7] the target is T7, hMPV075 (hMPV A, UniProt Q6WB98 19-102).
T7 construct: L473F
Procedure: as §1, §2

Experiment [8] has as its target T8, hMPV077 (hMPV A, UniProt Q6WB98 19-102).
T8 construct: Q476C, S477C
Procedure: as §1, §2

Experiment [9] has as its target T9, hMPV044 (hMPV A, UniProt Q6WB98 19-102).
T9 construct: T411C-Q434C
Procedure: as §1, §2

For experiment [10], the target named is T10, hMPV046 (hMPV A, UniProt Q6WB98 19-102).
T10 construct: A140C-S149C
Procedure: as §1, §2

B1: hMPV-2 mAb (antibody, V domains shown)
VH: QVQLQQSGAEVKKPGASVKVSCKASGYTFTSYGISWVRQAPGQGLEWMGWISGYNGNTNYAQTFQGTFTMTTDTSTSTAYMELRRLRSGDTAVYYCARDRYYASGSYNGMDVWGQGTTVTVSS
VL: QSALTQPPSASGAPGQRVTVSCSGSSSNVGSSSVYWYQQLPGTAPKLLIYRNNQRPSGVPDRFSGSKSGTSASLAISGLRSEDEADYYCAAWDDSLSGWVFGGGTKLTVLG
notes: human IgG1
B1: the “Response Shift” value turned out to be 0.585 nm in experiment [1]; 0.709 nm in experiment [2]; 0.769 nm in experiment [3]; 0.73 nm in experiment [4]; 0.677 nm in [5]; 0.76 nm in experiment [6]. For the same molecule, the “Response Shift” value in experiment [7] was 0.802 nm; in [8], 0.751 nm; in experiment [9], 0.797 nm; in experiment [10], 0.573 nm.
